In a protein production outcome set (Wang et al. 2014):

Assay: label from the status in PepcDB records
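Note: failed if final PepcDB status was selected cloned or expressed and not failed if soluble or beyond.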

Sequence | protein production
MVSPKKLTPAMEQVKTFKEKYPDCILFMRMGDFYETFFEDAEICARELDIVQTSRSKDPEGNPIPLAGIPYHAVDLYLPRMIRKGYKVAVCEQVEDPKLAKGVVKRDVVRVVTPGTAIDADVIPGPTARYLMALCSDAKKTVMGLAFLDISTGEFFVREIPFEPGFSALATEIEQYNPLEILVPQGISADLISFLASTCKVLTPGRSGLFVDGTAELTAAFCVSSLDGFDVSSAECINAAAAALRYAKETQKTSLPHIRGFSRKYANDAMILDAITLRNLEILNPLRGDRNDTTLFGFLNRTKTPMGSRVLRSTITRPLTSPEKINHRLDAVGFFTRRPVLLSGTRTILSRFTDIERIAGRIAYGNASPRDLLALASSLAAVPELTAELCGAEGLLKDELEQIPSFDGVADLILSAIVDEPPLVYKNGGVIREGYSSDLDQIRNIVTNGRDWIAELQQTERERTGIRSLKIAYNNVFGYYIEITKANLHLVPDTYERKQTTANGERFTIPALREREAVMAQADDRVLALEISLFESLLTHLSEFVPALQQASRSIGTIDMIAAFADLSLSGNYVRPELVPGTELLIRDGRHPIVENTVPGGYVPNDTEMSSIGQQILILTGANMAGKSTYMRSVALICIMAQTGCFVPASFARIGIVDRVFTRVGASDDLAGGQSTFMVEMLELANILNNATDQSLILLDEIGRGTSTVDGYAIARAVLEYLHGKGGAGPRTLFATHFHQLIGMESELRRVRNYHFAVKEDQHDITFLRKLIPGATDRSYGIHVAKIAGVPKKVLVRASDLLREALTQDASSGGTKYYTQMLLTDAEPAPSAVEERIRDADPNMMTPMQALMFINELKALLEKK | failed
MVSRLVLGCGTVGHAVIGSLADRRGELFVFDGDESRVDSLRNESVAAEVRDVTDPAAITLPDRSVDMVVVAGERADRNRLAAIAADAAHPDAGLVVYLGFDATPKDRHRIDSVADRVVDPGAELLSHANSLTESGASQRLQALRQTLQGIDGRLGVFMHDNPDPDAIAAAVGLQRIAEDAGVDSQACYFGEISHQENRAFVNLLEFDLRNVETQSDAEFDAVALVDHSGPGVNDQLAPDTDVDIVIDHHPPTTDVDAGFTDIRPDTGATSTILVEYLRGYGIDVRTAVATALLYGIRVDTDDFAREITPRDFTAAAWLLPNADTDVLERIEAPSLSADTFDTIAAGIRNRQLNGSVLASCVGQITARDTLAQTADRLLAMRGVAVTFVYGYFDGTIYVSARSRRKDLDLGAVLRSAFDDLGSAGGHADMAGAQLPLGLFDAVGEDAATTLTEMIEEVVASRFFEEVHGGTSGIQQGE | failed
MVSSLFINPFSEDAREIVRKYGSLDTIDDTRDELLEIGRRTRGQNLADNSLLPASIAELAVKRLEWYLRRQRKDFNHRDYAYLMNPEIEEYDVLAFYILAQAAGAGFMKASREARLVVESAGAMVEDRLNVFGGEREEIMAEVLYELGSEGLRWTELADLLGSGKLKLTDLILKEGRVIIDRDEFITSFQDSIRDRSPDRLYDILVGLEVRETMISRMIMQRTEEYIGMVREMSSTVEVHPLILETAERIRETVEEIMSFTGGPVKSARPGKLVQEAFPPCIRGTLDGVRSGNRNDAIVLLLTSFISYARLYPSVFRDRTPMKVSDLDPDLRITLGEILPVIYDAADRCEPPLFEDDPQEKLNITAKLGFGVHDMPELENEGESKWYTPMSCEKIKIHLPDLCRPDKLCSSISNPLTYYNRKRWKLRSSGEKEELEHHHHHH | not failed
MVSVTFEPVGKKVEDEPDTILEIARRNGVLIRSDCGGKGVCGKCKVVVVDYRGSLSDITDHERKHLIEEEISKGYRLACQARVEEGRATIFIPPESRLERRKVAGLTIEKEVELNPAVRKVYAEIQPPSIEDQLPDYDRLTRALGDFSLDLETLSEMPKLLREAEWRVTATFWNGRLIDLEKGDVSDRCYGVAVDVGSSKIICHLVDLKSGETIATGYSDNPQVAYGEDIVSRITYASKSAENRKRLQTVVVETVNQIIAELCNESGVDLRHVYEVMIVGNSVMHHLFFGIEPRFIGVSPFTPAVRRGVSFPAEDVGLRINRKGYVSSLPLVAGFVGADAVANIAITGIHKAEEISMVIDIGTNTEIVIGNREKLGVCSAPSGPAFEGAHITFGMKAISGAIDSVRIERDEVIYTTIDNAKAKGLCGTGLIDLIAELYRNGIINRNGKFVKDHSRIIVDGVPKFVVAKAEETEFGKPITVSEKDINELLMAKGAIKSGWMILSERLGIEPDKIERIYLAGSFGRHINVENAKVIGLLPDIPSEKITFAGDTAVGGAKMALKSVRVRDEMEDVVSRLNYVELSVEKNFYSVFVRAIPI | not failed
MVSYDRHINHVRLFVDGILDSSFLTEGITKTNDSPIYIGGAPYSVDSCDFPFLLDELKIYNLSIGTDQIQSEASASLSGIEPSFIYFGCFHCDMNTAILSCPNNYHLCNKMELYIGVYNVLRKFSLDVNNIILPYSSESNLGIGICCTDI | failed
MVTGMFSLGRTYLFRVPEGEELLTYIKNFCKKEGIETAIINGIGTLKNPKIGYFLEEKKEYKVIPLKGSYELISLIGNVSLKDGEPFVHAHVSLGNEEGIVFGGHLVEGEVFVAEIFLQELKGEKIERKPTKYGLALWEELKLLEHHHHHH | not failed
MVTLLVLRMISAITRKTPVKTLSKRSKTFNETAGGEGGGGAIKLITINVHIRYSFTMITISQYFHLVDELRNCTRKVWSTYPKELIELLRDSMVTH | failed
MVVAVYPGTFDPLTRGHEDLVRRASSIFDTLVVGVADSRAKKPFFSLEERLKIANEVLGHYPNVKVMGFTGLLKDFVRANDARVIVRGLRAVSDFEYEFQMAGMNRYLLPDVETMFMTPSDQYQFISGTIVREIAQLGGDVSKFVFPSVEKWLTEKVAAMAQGPSA | not failed
MVVETIERSCEGSKRRHVNGGDIAVPCSGEECSNGDINVAPGVSAKRARVSREMTFEDIYGADALLNDDDDEDDDCDWEPVQAPMEFVKWCCVNCTMSNPGDMVHCCICGEHKESGILRHGYLASPFFKDTGLIEVEEKYGGSSSATSSTAVGFDERMLLHSEFEVKAQPHPERPDRLRAIAASLATAGVFPGRCLPINAREITKQELQMVHTSEHVDAVDTTSQLLYSYFTSDTYANEYSARAARLAAGLCADLATDIFTGRVKNGFALVRPPGHHAGVRHAMGFCLHNNAAVAALVAQAAGAKKVLIVDWDVHHGNGTQEIFEQNKSVLYISLHRHEGGNFYPGTGAADEVGSNGGEGYCVNVPWSCGGVGDKDYIFAFQHVVLPIASAFSPDFVIISAGFDAARGDPLGCCDVTPAGYSRMTQMLGDLCGGKMLVILEGGYNLRSISASATAVIKVLLGENPENELPIATTPSVAGLQTVLDVLNIQLEFWPSLAISYSKLLSELEARLIENKSEKSDEKEGCSGSDMVEMGTKEAFVQLSLGSYDFKIKVILESILPNPS | failed
MVVHGGAAYIRAMDHLPVDPARYGAFLVAMFVMAITPGPANLFAIATGMEKGKGAALAGVAGMNCATLIWFIGSALGLGALIIAFPQAFHLLALAGAAYLVWLGLKSLWAGWKNAESHAVAAVRGGKSAFVDGFAVQIANPKALLFFTAVLPPFLDVDRPLVPQLLMFACATIGMDLISMSAYGVGGAALSDRMNEPGFRRGFAILVGVLLITAAGLIVSRG | failed
MVVKASGGSSVARPQLYQTVPVSTIIQAEQQDRFLNRGELDELAVYLRSGAKRLEIATTLTRNADIIVSRAANRIFVGGSPMAFLSRPQTEEAPQFTTGARGEAIDIKEAMKLGTATYVDTRGGFLEGLRSIFSASSGGAPVGFKPINIARYGPARMEKSLRDLDWFLRYTTYAIVAGDPNILAVNTRGLREIIEAACSSDATIAALQEMRRAALSYFEKDAEAKGIVETYFDVLINEFIAPAPSDKVRQRNSTDLQGLQLPQIYFNAAERRPKFVMKPGLSAAEKNEVVKAAYRQIFERDISRAYGLGISDLESKVKNGSISMKEFIRQLAKSPLYRKNFYEPYINSRALELAFRHILGRGPSSREEVQTYFAIISKGGLPALVDALVDSKEYSDYFGEETVPYLRGLGQEAQECRNWGAQQDLFKYSAPFRKVPQFITTFAAQDQPLPDQHPYGSGNDPLEIQFGAIFPKEKKNPSARPQPFNKDTRRILIARGPGINNQVSNPGARGLTPGTLGPKVFKLDQLPSINARIGKRSIATGTDSVKFAESSTQRVIRAAYLQVFGRDVYEGQRQKVAEIKLENGEISVREFVRILAKSNLFRSLYWTPLYVTKAIEYIHRRLLGRPTYGRQEMNAYFDIASKKGLYGLVDAIIDSQEYSEAFGEDTVPYERYITPQGLALRSLRVGTIGETGVPPEKEETPRFVELGAVTELRTEPAIQFRANQGVSKRREQTKVFKLTDLNDKQNLQLVIQAAYRQVFERDVAPYIVRDEFTALESKLSNGEITLKEFIEALGCSELYQKEFYTPYPNTKVIELGTKHFLGRAPLDQAEIRRYNQILATQGLKAFVQALVSSAEYAQAFGEDTVPYRRFPTLPAANFPNTEKLHNQLTKQSDAIVVPSFAPVKPRLDNTKLPLLSRAIAEQEAKARQADPSKPRFIELGRSFRNGDGQSVEVGVGTTRRRPARIFRMTVGAPSAEVELVINAIYCQVMDVFSGQVPSQFRRPDLESRLRNGEITVREFVRTLASSEIYRNRFYTPYPNTKVIEFLFRHLLGRAPATQAEIRQYNKILADQGLKTAVETMVNSPEYSRYFGEDVVPYKRFPTLPAGNYIGSVKADADLVKQSWSSLSPSLVGIQPSHRD | failed
MVVLKKMIGLVVVLSVLLARDNPFEPEINSKNLQGGFNGIYDSYFKEIHVDLPTSARILKQITLTYQDIDGSIHSKVVGIDKGIDWHYPLKLSQHTLDPAAFEKRYQIQDFDFLMASNTMILRSPYKILRSFVLVNPYRIVLDTQKGPLDIYQNMDLNQKFFSHIKVGTHKDYYRITLILDGKYRYLLEEKNGAYELKLK | failed
MVVNKRLILILLFILNTAKSDELSWKGNDFTLYARQMPLAEVLHLLSENYDTAITISPLITATFSGKIPPGPPVDILNNLAAQYDLLTWFDGSMLYVYPASLLKHQVITFNILSTGRFIHYLRSQNILSSPGCEVKEITGTKAVEVSGVPSCLTRISQLASVLDNALIKRKDSAVSVSIYTLKYATAMDTQYQYRDQSVVVPGVVSVLREMSKTSVPTSSTNNGSPATQALPMFAADPRQNAVIVRDYAANMAGYRKLITELDQRQQMIEISVKIIDVNAGDINQLGIDWGTAVSLGGKKIAFNTGLNDGGASGFSTVISDTSNFMVRLNALEKSSQAYVLSQPSVVTLNNIQAVLDKNITFYTKLQGEKVAKLESITTGSLLRVTPRLLNDNGTQKIMLNLNIQDGQQSDTQSETDPLPEVQNSEIASQATLLAGQSLLLGGFKQGKQIHSQNKIPLLGDIPVVGHLFRNDTTQVHSVIRLFLIKASVVNNGISHGLEHHHHHH | not failed
MVVRQIRALLSSLLWAWRRARLQGRSAFQLVRACLREGAKGPRHFARRMAAYASGGSASPPPVSLDAYESWHSALPQLEVPADSGMISVIIPVCNTPELFLREAIESVRTQTYQNWEICIHDDASNEPHVGRILAEFKKRIPNLRVTRSETRSGIAATTNAALASARGRWVTFLDHDDVLDRNALAAVVDCHIKTGSAVVYTDHDMLGEDGRLRNPYFKPDWNYDLFLAQMYLGHLVSFEHDLIKRVGLTRSECDGSQDYDLVLRCVAAGAKVGHVPRVLYHWRMHAGSTAANADSKPYAHDSGKRAIQYHVDAVYPGAQVEDGPHLFCYDVRYPYAQHAPKASIIIPTRDGLDLLRPCIESIQGRTDYTNFEIIVVDNGSKDPATLEWLDAMSNEPWFRVLQADVPFNWSALNNLAAASAEGEVLVFLNNDTEVASADWLQRLVENALRPDVGACGALLLYADGSIQHAGVVVGMGGWADHVFKGQQPIHHQHLFVSPILRREVLAVTGACVAISRANFDAIGGFDESFVVCGSDVELCLRAMANGKRTVYVPEAILIHHESKTRDPRVIPESDFVRSAQAYSPYRESGDPFYSPNLDYMSPSPALRGAQADA | failed
MVVSKMNKDAQMRAAINQKLIETGERERLKELLRAKLIECGWKDQLKAHCKEVIKEKGLEHVTVDDLVAEITPKGRALVPDSVKKELLQRIRTFLAQHASL | failed
